From US20240269306A1, “B7H4-TARGETED ANTIBODY-DRUG CONJUGATES AND METHODS OF USE THEREOF” (Mersana Therapeutics, Inc., priority 2021, published 2024)
Like-named read-outs stand apart in the source and are kept apart here.

Assays:
[1] = target: T1, Human B7-H4 on the cell surface (MX-1, HCC1569, CAMA-1 cells; HEK-293 cells stably transfected with human B7-H4) (human) (UniProt Q7Z7D3); experiment: flow cytometry, HCC1569 cells
T1 sequence: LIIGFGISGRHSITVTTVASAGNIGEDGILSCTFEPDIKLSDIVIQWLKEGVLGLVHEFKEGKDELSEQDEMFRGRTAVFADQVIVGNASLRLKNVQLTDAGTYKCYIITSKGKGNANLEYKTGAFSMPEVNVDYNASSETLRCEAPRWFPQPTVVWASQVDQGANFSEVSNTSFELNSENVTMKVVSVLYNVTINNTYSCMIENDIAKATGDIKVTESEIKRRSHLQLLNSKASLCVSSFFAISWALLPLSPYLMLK

[2] = target: T2, Recombinant human B7-H4 protein (R&D Systems #6576-B7-050) (human) (UniProt Q7Z7D3); experiment: ELISA, coated recombinant human B7-H4
T2 sequence: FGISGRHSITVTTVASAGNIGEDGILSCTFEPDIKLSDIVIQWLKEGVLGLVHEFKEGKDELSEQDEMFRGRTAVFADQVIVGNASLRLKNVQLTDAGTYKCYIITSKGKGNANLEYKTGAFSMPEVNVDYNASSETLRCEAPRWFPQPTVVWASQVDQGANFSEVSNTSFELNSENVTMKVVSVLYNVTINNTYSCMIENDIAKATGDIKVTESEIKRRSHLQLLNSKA

[3] = target: T2, Recombinant human B7-H4 protein (R&D Systems #6576-B7-050) (human); experiment: ELISA, coated recombinant human B7-H4; remark: listed apart in the source
[4] = target: T1, Human B7-H4 on the cell surface (MX-1, HCC1569, CAMA-1 cells; HEK-293 cells stably transfected with human B7-H4) (human); experiment: flow cytometry, MX-1 cells
[5] = target: T2, Recombinant human B7-H4 protein (R&D Systems #6576-B7-050) (human); experiment: BLI (Octet)
[6] = target: T1, Human B7-H4 on the cell surface (MX-1, HCC1569, CAMA-1 cells; HEK-293 cells stably transfected with human B7-H4) (human); experiment: flow cytometry, MX-1 cells; remark: listed apart in the source
[7] = target: T2, Recombinant human B7-H4 protein (R&D Systems #6576-B7-050) (human); experiment: BLI (Octet), antibody on anti-human Fc sensor, human B7-H4 in solution, 25 C

- EC50 [1]: 3.44 nM
- EC50 [2]: 0.52 nM
- EC50 [3]: 0.86 nM
- EC50 [4]: 8.83 nM
- fold difference of kon against B7-H4 2F9 and variant antibodies [5]: < 2 fold
- fold lower Kd than B7-H4 2F9 [5]: > 100 fold
- EC50 [6]: 4.9 nM
- Kd [7]: 0.117 nM
- koff [7]: 1.46e-05 s⁻¹
- kon [7]: 125000 M⁻¹ s⁻¹
B1: 1D11 antibody (antibody, from another filing, V domains shown)
VH: QVQLQQSGAELVRPGTSVKMSCKASGYTFTSYWIGWAKQRPGHGFEWIGDIYPGGGYTNYNEKFKGKATLTADKSSSTAYMQFSSLTSEDSAIYYCARLDGSSYRGAMDSWGQGTSITVSS
VL: DIQMTQSPSSLSASLGGKVTITCKASQGFNKYVAWYQHKPGQCPRLLIHYTSTLQPGIPARFSGSGSGRDYSFSISNLEPEDSATYFCLQYGNLLYAFGGGTKLEIKR
